# In article PMC11077049, “Unearthing a novel function of SRSF1 in binding and unfolding of RNA G-quadruplexes”:
# T1: SRSF1 RS (human, UniProt Q07955 199-248)
# T1 chain: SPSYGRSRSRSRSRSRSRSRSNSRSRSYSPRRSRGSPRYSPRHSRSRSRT
# T2: RRM1/RRM2 linker (human, UniProt Q07955 92-120)
# T2 chain: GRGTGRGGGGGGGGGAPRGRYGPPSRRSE
# Tests used:
# [1] = target: T1, SRSF1 RS; experiment: STD NMR; 0.5 mM RNA, 10 uM RS, D2O; strongest signal; FP, 10 nM RNA, 37 C 30 min then 25 C 10 min; 21-mers: 25 mM KCl, 0.25 M Arg/Glu, 20 mM Tris-HCl pH 7.5, 0.1 mM EDTA, 0.1 mM TCEP, 0.02% Tween 20; 8-mers: 35 mM; conditions: protein: recombinant; tags: none (SUMO cleaved)
# [2] = target: T1, SRSF1 RS; experiment: FP; 8-mer buffer, 35 mM K3PO4; FP, 10 nM RNA, 37 C 30 min then 25 C 10 min; 21-mers: 25 mM KCl, 0.25 M Arg/Glu, 20 mM Tris-HCl pH 7.5, 0.1 mM EDTA, 0.1 mM TCEP, 0.02% Tween 20; 8-mers: 35 mM; conditions: protein: recombinant, tags: none (SUMO cleaved), label: 5' fluorescein
# [3] = target: T1, SRSF1 RS; experiment: FP; FP, 10 nM RNA, 37 C 30 min then 25 C 10 min; 21-mers: 25 mM KCl, 0.25 M Arg/Glu, 20 mM Tris-HCl pH 7.5, 0.1 mM EDTA, 0.1 mM TCEP, 0.02% Tween 20; 8-mers: 35 mM; conditions: protein: recombinant, tags: none (SUMO cleaved), label: 5' fluorescein
# [4] = target: SRSF1 full-length (human, UniProt Q07955 1-248); experiment: as above; conditions: protein: recombinant, tags: none (pSMT3 His-SUMO, Ulp1 cleaved), label: 5' fluorescein
# [5] = target: T3, SRSF1 RRM tandem (human, UniProt Q07955 1-196); experiment: as above; conditions: protein: recombinant, tags: none (SUMO cleaved), label: 5' fluorescein
# T3 sequence (Q07955 1-196): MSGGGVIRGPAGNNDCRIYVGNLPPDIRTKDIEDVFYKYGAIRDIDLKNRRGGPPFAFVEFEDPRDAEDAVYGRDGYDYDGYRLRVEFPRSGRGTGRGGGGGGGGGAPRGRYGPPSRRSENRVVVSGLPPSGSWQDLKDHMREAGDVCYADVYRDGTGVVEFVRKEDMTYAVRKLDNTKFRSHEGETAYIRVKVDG
# [6] = target: T1, SRSF1 RS; experiment: STD NMR; 0.5 mM RNA, 10 uM RS, D2O; no signal above noise; FP, 10 nM RNA, 37 C 30 min then 25 C 10 min; 21-mers: 25 mM KCl, 0.25 M Arg/Glu, 20 mM Tris-HCl pH 7.5, 0.1 mM EDTA, 0.1 mM TCEP, 0.02% Tween 20; 8-mers: 35 mM; conditions: protein: recombinant; tags: none (SUMO cleaved)
# [7] = target: RRM tandem F58A (human, UniProt Q07955 1-196, F58A); experiment: FP; FP, 10 nM RNA, 37 C 30 min then 25 C 10 min; 21-mers: 25 mM KCl, 0.25 M Arg/Glu, 20 mM Tris-HCl pH 7.5, 0.1 mM EDTA, 0.1 mM TCEP, 0.02% Tween 20; 8-mers: 35 mM; conditions: protein: recombinant; tags: SUMO; label: 5' fluorescein; G-quadruplex (parallel)
# RRM tandem F58A, sequence (Q07955 1-196 F58A): as the sequence (Q07955 1-196) above, with F58A counted along it
# [8] = target: RRM tandem W134A (human, UniProt Q07955 1-196, W134A); experiment: as above; conditions: protein: recombinant; tags: SUMO; label: 5' fluorescein; G-quadruplex (parallel)
# RRM tandem W134A, sequence (Q07955 1-196 W134A): as the sequence (Q07955 1-196) above, with W134A counted along it
# [9] = target: T2, RRM1/RRM2 linker; experiment: as above; conditions: protein: recombinant; label: 5' fluorescein; G-quadruplex (parallel)
# [10] = target: RRM tandem R173A (human, UniProt Q07955 1-196, R173A); experiment: as above; conditions: protein: recombinant; tags: SUMO; label: 5' fluorescein; G-quadruplex (parallel)
# RRM tandem R173A, sequence (Q07955 1-196 R173A): as the sequence (Q07955 1-196) above, with R173A counted along it
# [11] = target: RRM tandem Q135A (human, UniProt Q07955 1-196, Q135A); experiment: as above; conditions: protein: recombinant; tags: SUMO; label: 5' fluorescein; G-quadruplex (parallel)
# RRM tandem Q135A, sequence (Q07955 1-196 Q135A): as the sequence (Q07955 1-196) above, with Q135A counted along it
# [12] = target: RRM tandem Y19A (human, UniProt Q07955 1-196, Y19A); experiment: as above; conditions: protein: recombinant; tags: SUMO; label: 5' fluorescein; G-quadruplex (parallel)
# RRM tandem Y19A, sequence (Q07955 1-196 Y19A): as the sequence (Q07955 1-196) above, with Y19A counted along it
# [13] = target: RS mutant KS (human, UniProt Q07955 198-248, R198K;R204K;R206K;R208K;R210K;R212K;R214K;R216K;R218K;R222K;R224K;R229K;R230K;R2 …); experiment: as above; conditions: protein: recombinant; tags: none (SUMO cleaved); label: 5' fluorescein; G-quadruplex (parallel)
# [14] = target: RRM tandem WT (Table 3) (human, UniProt Q07955 1-196); experiment: as above; conditions: protein: recombinant; tags: SUMO; label: 5' fluorescein; G-quadruplex (parallel)
# RRM tandem WT (Table 3), sequence (Q07955 1-196): as the sequence (Q07955 1-196) above
# [15] = target: RRM tandem F56A (human, UniProt Q07955 1-196, F56A); experiment: as above; conditions: protein: recombinant; tags: SUMO; label: 5' fluorescein; G-quadruplex (parallel)
# RRM tandem F56A, sequence (Q07955 1-196 F56A): as the sequence (Q07955 1-196) above, with F56A counted along it
# [16] = target: RS mutant RA (human, UniProt Q07955 198-248, S199A;S201A;S205A;S207A;S209A;S211A;S213A;S215A;S217A;S219A;S221A;S223A;S225A;S2 …); experiment: FP; similar affinity to RS; FP, 10 nM RNA, 37 C 30 min then 25 C 10 min; 21-mers: 25 mM KCl, 0.25 M Arg/Glu, 20 mM Tris-HCl pH 7.5, 0.1 mM EDTA, 0.1 mM TCEP, 0.02% Tween 20; 8-mers: 35 mM; conditions: protein: recombinant; tags: none (SUMO cleaved); label: 5' fluorescein; G-quadruplex (parallel)
# [17] = target: T3, SRSF1 RRM tandem; experiment: FP; FP, 10 nM RNA, 37 C 30 min then 25 C 10 min; 21-mers: 25 mM KCl, 0.25 M Arg/Glu, 20 mM Tris-HCl pH 7.5, 0.1 mM EDTA, 0.1 mM TCEP, 0.02% Tween 20; 8-mers: 35 mM; conditions: protein: recombinant; tags: none (SUMO cleaved); label: 5' fluorescein
binder,measurement,setting,value
GGG (ssRNA) [GGG 3-mer],binding result,[1],binds
AAAAAAAA (ssRNA) [8A],Kd,[2],610 ± 15 nM
GGGGGGGG (structured_RNA) [8G],Kd,[2]; intermolecular G-quadruplex,3 ± 0.8 nM
UUGGGAGGGAGGGAGAGGGUU (structured_RNA) [MMP16 GQ],Kd,[3]; G-quadruplex,150 ± 10 nM
same,Kd,[4]; G-quadruplex,5.9 ± 0.6 nM
same,Kd,[5]; G-quadruplex,3.5 ± 0.49 µM
UUU (ssRNA) [UUU 3-mer],binding result,[6],no binding
GGGGGCUGGGCGGGGACCGGG (structured_RNA) [ARPC2 GQ],Kd,[7],1500 ± 80 nM
same,Kd,[3]; G-quadruplex (parallel),250 ± 22 nM
same,Kd,[8],1200 ± 90 nM
same,binding result,[9],no binding
same,Kd,[4]; G-quadruplex (parallel),3.6 ± 0.7 nM
same,Kd,[10],140 ± 12 nM
same,Kd,[11],350 ± 20 nM
same,Kd,[12],1800 ± 160 nM
same,binding result,[13],no binding
same,Kd,[14],130 ± 11 nM
same,Kd,[15],7 ± 1.5 µM
same,Kd,[5]; G-quadruplex (parallel),0.22 ± 0.019 µM
same,binding result,[16],binds
UCAGAGGG (ssRNA) [GGG motif RNA],binding signal,[17],~3 fold weaker than GGA motif
CUCUCUCU (ssRNA) [4CU],Kd,[2],470 ± 12 nM
AAA (ssRNA) [AAA 3-mer],binding result,[6],no binding
GAGAGAGAGAGAGAGAGAGAG (ssRNA) [21-mer GA],Kd,[3],210 ± 16 nM
UGGGUUAGGGUUAGGGUUAGGG (structured_RNA) [TERRA GQ],Kd,[3]; G-quadruplex,26 ± 2 nM
same,Kd,[4]; G-quadruplex,4.6 ± 0.5 nM
same,Kd,[5]; G-quadruplex,3.2 ± 0.29 µM
GAGAGAGA (ssRNA) [4GA],Kd,[2],83 ± 3 nM
CUCUCUCUCUCUCUCUCUCUC (ssRNA) [21-mer CU],Kd,[3],1400 ± 100 nM
UUUUUUUU (ssRNA) [8U],Kd,[2],550 ± 21 nM
